Common to all, as to assay: SPR, scFv captured via anti-V5, RBD as analyte
Assay [1] addresses T1, SARS-CoV-2 Receptor Binding Domain (RBD) protein (SARS-CoV-2, UniProt P0DTC2 319-541).
Assay [2] deals with SARS-CoV-1 Receptor Binding Domain (RBD) protein (SARS-CoV-1, UniProt P59594 306-527).
For assay [3], the target named is MERS Receptor Binding Domain (RBD) protein (MERS coronavirus, UniProt K9N5Q8 367-606).
The target in assay [4] is T1, SARS-CoV-2 Receptor Binding Domain …. The source holds these as a separate data set.

Read-outs that look alike come from different tables or passages of the source. Some results are limits rather than exact numbers.

B1: COVID19_P20_B06 (scFv, V domains shown)
VH: EVQLVESGGGLVQPGGSLRLSCAASGFTFHDYAMHWVRQAPGKGLEWVAVTSYDGNTKYYADSVKGRFTISRDNSKNTLYLQMNSLRAEDTAVYYCVTNLDNSRDYFPHYFHDMDVWGQGTLVTVSS
VL: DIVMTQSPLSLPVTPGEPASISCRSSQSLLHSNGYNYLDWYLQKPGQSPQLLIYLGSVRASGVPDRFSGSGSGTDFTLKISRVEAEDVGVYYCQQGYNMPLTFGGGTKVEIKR
In the case of B1, in assay [1], binding was put at a Kd of 5.1 nM, the koff stood at 0.000439 s⁻¹ and the on-rate constant (kon) was found to be 86000 M⁻¹ s⁻¹. Further, the binding result in assay [2] is “no binding (tested: up to 300 nM)”. In addition, the binding result in assay [3] is “no binding (tested: up to 300 nM)”. For the same molecule, the dissociation constant (Kd) in assay [4] is less than 50 nM.

B2: COVID19_P08_B12 (scFv, V domains shown)
VH: EVQLVESGGGLVQPGGSLRLSCAASGFSFRSYGMHWVRQAPGKGLEWVAVISSDGRNKFYADSVKGRFTISRDNSKNTLYLQMNSLRAEDTAVYYCVTNFDNSRDYFPHYFHDMDVWGQGTLVTVSS
VL: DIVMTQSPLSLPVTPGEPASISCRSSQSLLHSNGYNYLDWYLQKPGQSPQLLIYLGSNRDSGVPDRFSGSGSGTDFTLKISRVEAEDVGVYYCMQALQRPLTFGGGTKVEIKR
Take B2: in assay [1], the equilibrium dissociation constant (Kd) was found to be 3.5 nM, the off-rate constant (koff) stood at 5.7e-05 s⁻¹ and the association rate constant (kon) was determined as 16000 M⁻¹ s⁻¹. Further, in assay [2], the binding result is reported as “no binding (tested: up to 300 nM)”. For the same molecule, in assay [3], the binding result is reported as “no binding (tested: up to 300 nM)”. Also, the Kd in assay [4] is less than 50 nM.

B3: COVID19_P19_C07 (scFv, V domains shown)
VH: EVQLVESGGGLVQPGGSLRLSCAASGFPFSLYGMHWVRQAPGKGLEWVAVITSDGRSKFYADSVKGRFTISRDNSKNTLYLQMNSLRAEDTAVYYCVTNLDNSRDYFPHYFHDMDVWGQGTLVTVSS
VL: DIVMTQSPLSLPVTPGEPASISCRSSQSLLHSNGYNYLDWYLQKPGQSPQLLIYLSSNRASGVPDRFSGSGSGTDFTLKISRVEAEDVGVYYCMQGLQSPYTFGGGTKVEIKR
In assay [1], B3 returned a dissociation constant (Kd) of 3.6 nM, an off-rate constant (koff) of 5.7e-05 s⁻¹ and an on-rate constant (kon) of 16000 M⁻¹ s⁻¹. The binding result in assay [2] is given as “no binding (tested: up to 300 nM)”. Also, the binding result in assay [3] is “no binding (tested: up to 300 nM)”. Further, the dissociation constant (Kd) in assay [4] was less than 50 nM.

B4: COVID19_P07_G02 (scFv, V domains shown)
VH: EVQLVESGGGLVQPGGSLRLSCAASGFRFNTYAMHWVRQAPGKGLEWVAVISSSGRNKFYADSVKGRFTISRDNSKNTLYLQMNSLRAEDTAVYYCVTNMDNSRDYFPHYFHDMDVWGQGTLVTVSS
VL: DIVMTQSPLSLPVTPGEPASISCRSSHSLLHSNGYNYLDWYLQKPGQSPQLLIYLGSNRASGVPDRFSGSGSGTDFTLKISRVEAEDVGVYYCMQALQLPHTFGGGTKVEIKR
In assay [1], B4 yielded a Kd of 4.8 nM, a koff of 5.7e-05 s⁻¹ and an association rate constant (kon) of 11900 M⁻¹ s⁻¹. Further, the binding result in assay [2] is given as “no binding (tested: up to 300 nM)”. Besides, the binding result in assay [3] is reported as “no binding (tested: up to 300 nM)”. Also, the dissociation constant (Kd) in assay [4] was less than 50 nM.

B5: COVID19_P08_C12 (scFv, V domains shown)
VH: EVQLVESGGGLVQPGGSLRLSCAASGFTFNNYALHWVRQAPGKGLEWVSGVSWNGSRTHYADSVKGRFTISRDNSKNTLYLQMNSLRAEDTAVYYCVTNLDNSRDYFPHYFHDMDVWGQGTLVTVSS
VL: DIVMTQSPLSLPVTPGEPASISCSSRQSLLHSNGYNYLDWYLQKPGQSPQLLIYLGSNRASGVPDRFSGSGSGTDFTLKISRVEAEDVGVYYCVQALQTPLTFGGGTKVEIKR
In assay [1], B5 came in with an equilibrium dissociation constant (Kd) of 1.1 nM, a dissociation rate constant (koff) of 5.7e-05 s⁻¹ and an on-rate constant (kon) of 53000 M⁻¹ s⁻¹. The binding result in assay [2] was “no binding (tested: up to 300 nM)”. For the same molecule, the binding result in assay [3] is “no binding (tested: up to 300 nM)”. In assay [4], this molecule displayed a dissociation constant Kd of less than 50 nM.

B6: COVID19_P19_B08 (scFv, V domains shown)
VH: EVQLVESGGGLVQPGGSLRLSCAASGFTFSDHYMDWVRQAPGKGLEWVAAIGASGESTYYADSVKGRFTISRDNSKNTLYLQMNSLRAEDTAVYYCVTQRDNSRDYFPLWFHDMDVWGQGTLVTVSS
VL: DIVMTQSPLSLPVTPGEPASISCRSSQSLLYSDGDTYLDWYLQKPGQSPQLLIYLGSIRAPGVPDRFSGSGSGTDFTLKISRVEAEDVGVYYCMQSIQTPWTFGGGTKVEIKR
In assay [1], B6 gave an equilibrium dissociation constant (Kd) of 32.7 nM, a koff of 0.00685 s⁻¹ and an association rate constant (kon) of 209000 M⁻¹ s⁻¹. The binding result in assay [2] is given as “no binding (tested: up to 300 nM)”. In addition, the binding result in assay [3] is on record as “no binding (tested: up to 300 nM)”. This molecule also gave a dissociation constant (Kd) in assay [4] of less than 50 nM.

B7: COVID19_P19_H07 (scFv, V domains shown)
VH: EVQLVESGGGLVQPGGSLRLSCAASGFTFGTSAVSWVRQAPGKGLEWVSAISGSGGSTYYADSVKGRFTISRDNSKNTLYLQMNSLRAEDTAVYYCVTQRDNSRDYFPHYFHDMDVWGQGTLVTVSS
VL: DIVMTQSPLSLPVTPGEPASISCRSSQSLLYSDGDTYLDWYLQKPGQSPQLLIYLGSIRAPGVPDRFSGSGSGTDFTLKISRVEAEDVGVYYCMQGLETPWTFGGGTKVEIKR
With B7, in assay [1], the equilibrium dissociation constant (Kd) was 37 nM, the dissociation rate constant (koff) was 0.00786 s⁻¹ and the on-rate constant (kon) was 212000 M⁻¹ s⁻¹. The binding result in assay [2] is “no binding (tested: up to 300 nM)”. For the same molecule, in assay [3], the binding result was “no binding (tested: up to 300 nM)”. The molecule also registered a Kd in assay [4] of less than 50 nM.

B8: COVID19_P08_F04 (scFv, V domains shown)
VH: EVQLVESGGGLVQPGGSLRLSCAASGFRFDDFGMHWYRQAPGKGLEWVSATSGGGSITYYADSVKGRFTISRDNSKNTLYLQMNSLRAEDTAVYYCVTNMDNSRDYFPHYFHDMDVWGQGTLVTVSS
VL: not shown
For the molecule B8, the Kd in assay [1] is 2.04 nM; in assay [4] it was less than 50 nM. This molecule also showed a koff in assay [1] of 0.00019 s⁻¹. For the same molecule, in assay [1], the on-rate constant (kon) came to 93000 M⁻¹ s⁻¹. The binding result in assay [2] and in assay [3] was “no binding (tested: up to 300 nM)” throughout.

B9: COVID19_P07_D09 (scFv, V domains shown)
VH: EVQLVESGGGLVQPGGSLRLSCAASGFSFSRYGMHWVRQAPGKGLEWVSGISADGGTAYYADSVKGRFTISRDNSKNTLYLQMNSLRAEDTAVYYCVTNMDNSRDYFPHYFHDMDVWGQGTLVTVSS
VL: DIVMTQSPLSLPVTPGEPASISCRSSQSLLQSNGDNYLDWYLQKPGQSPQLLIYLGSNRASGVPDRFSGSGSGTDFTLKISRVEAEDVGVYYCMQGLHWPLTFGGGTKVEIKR
On to B9, for which the Kd in assay [1] was 1.8 nM; in assay [4] it was less than 50 nM. Further, the off-rate constant (koff) in assay [1] was found to be 5.7e-05 s⁻¹. In assay [1], the kon is 32500 M⁻¹ s⁻¹. Besides, the binding result in assay [2] and in assay [3] was “no binding (tested: up to 300 nM)” in each case.

B10: COVID19_P07_F02 (scFv, V domains shown)
VH: EVQLVESGGGLVQPGGSLRLSCAASGFAFSNYGMHWIRQAPGKGLEWVSGIDGSGGTAHYADSVKGRFTISRDNSKNTLYLQMNSLRAEDTAVYYCVTNMDNSRDYFPHYFHDMDVWGQGTLVTVSS
VL: not shown
On to B10, for which, in assay [1], the Kd stood at 10.1 nM, the koff turned out to be 0.00018 s⁻¹ and the kon turned out to be 17800 M⁻¹ s⁻¹. The binding result in assay [2] was “no binding (tested: up to 300 nM)”. Further, in assay [3], the binding result was “no binding (tested: up to 300 nM)”. This molecule yielded a dissociation constant (Kd) in assay [4] of less than 50 nM.

(Values after patent US11053304 (CENTIVAX, dated 2021).)
